Experimental data taken from the supplement of paper PMC9170038.

Test system: MS2 coat protein
Assay: apparent KD of MS2 coat protein; designed switch direction (-1 OFF switch, 1 ON switch): -1; higher = weaker reporter binding
Summary of the method: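 Three titration conditions were used: no input, 200 uM small-molecule ligand, and an oligonucleotide input. In each, SNAP-549-labelled MS2 coat protein was raised from 0.7 or 1.5 nM, doubling, to 3 µM over designed RNA switches transcribed on Illumina chips by stalled E. coli RNA polymerase. Curve fits of normalised cluster fluorescence gave values whose per-design median over clusters is the apparent KD.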

[1] = input ligand: microRNA oligo, concentration not stated
[2] = Eterna round: R95, input ligand: microRNA oligo, concentration not stated
[3] = Eterna round: R95, input ligand: FMN 200 uM
[4] = Eterna round: R95, input ligand: none

## UGAUCUAGCGGAGGAUAUACAUGAGGAUCACCCAUGUAGACUCUAUGACCGUAGUCGUGGAGUGUGUAGAAGGCCGCUAGAUCU [JL ENG2 3.74] (Eterna round: R96, puzzle: Exclusion NG 2)
Input ligand: FMN 200 uM
  apparent KD of MS2 coat protein: 14.3 nM
[1]
  apparent KD of MS2 coat protein: 9.24 nM
Input ligand: none
  apparent KD of MS2 coat protein: 12.6 nM

## UGAUCUAGCGGAGGAUAUACAUGAGGAUCACCCAUGUAGUUGUCUGUACCGUAGUGCAGACUUGUGUAGAAGGCCGCUAGAUCU [JL ENG2 3.62] (Eterna round: R96, puzzle: Exclusion NG 2)
Input ligand: FMN 200 uM
  apparent KD of MS2 coat protein: 25.9 nM
[1]
  apparent KD of MS2 coat protein: 9.62 nM
Input ligand: none
  apparent KD of MS2 coat protein: 14.3 nM

## UGAUCUAGCGGAGGAUAUACAUGAGGAUCACCCAUGUAUACUCUAUGACCGUAGUCGUGGAGCGUGUAGAAGGCCGCUAGAUCU [JL ENG2 3.76] (Eterna round: R96, puzzle: Exclusion NG 2)
Input ligand: FMN 200 uM
  apparent KD of MS2 coat protein: 14.6 nM
[1]
  apparent KD of MS2 coat protein: 9.1 nM
Input ligand: none
  apparent KD of MS2 coat protein: 11.6 nM

## UGAUCUAGCGGAGGAUAUACAUGAGGAUCACCCAUGUAUAGUCUAUGACCGUAGUCGUGGAACGUGUAGAAGGCCGCUAGAUCU [JL ENG2 3.78] (Eterna round: R96, puzzle: Exclusion NG 2)
Input ligand: FMN 200 uM
  apparent KD of MS2 coat protein: 18.4 nM
[1]
  apparent KD of MS2 coat protein: 10.2 nM
Input ligand: none
  apparent KD of MS2 coat protein: 14.4 nM

## UGAUCUUGUGUCAGGAUAUGCUGGUCUCCUCUCCAGCAGAAGGGACAUGAGGAUCACCCAUGUUCUCUCUUUUU [Magic-11] (puzzle: Brourd's mod of Exclusion 4)
[2]
  apparent KD of MS2 coat protein: 11.5 nM

## UGAUCUUUUGUUAGGAUAUGCUGGCUGAAAAGUCAGCAGAAGGGACAUGAGGAUCACCCAUGUUCUCUCUUUUU [Magic-09] (puzzle: Brourd's mod of Exclusion 4)
[2]
  apparent KD of MS2 coat protein: 10.3 nM

## UGAUUUGGAGGAUAUACAUGAGGAUCACCCAUGUAAAGGCCGUGGGUCGAACCCGAGAGUAGAAGGUCGAGAGA [Eternabot (L1) Solution 30] (Eterna round: R97, puzzle: Exclusion 3)
Input ligand: FMN 200 uM
  apparent KD of MS2 coat protein: 185 nM
Input ligand: none
  apparent KD of MS2 coat protein: 91.7 nM

## UGCAAGCUUUUAAGAUCCUACAUGAGGAUCACCCAUGUGCUCGUCUUAUAACGUACUGUGACGAAAGUCACGGUACG [JL TOV1 3.95] (Eterna round: R97, puzzle: Sensor, turn-off variant 1)
Input ligand: FMN 200 uM
  apparent KD of MS2 coat protein: 105 nM
Input ligand: none
  apparent KD of MS2 coat protein: 114 nM

## UGCAGACGAGGAUAUAAAUUUGAUAACAUGAGGAUCACCCAUGUGAUCGAUAGAUCAAAUUUAGAAGGCGUCUGCA [E5/7-A2] (Eterna round: R97, puzzle: Exclusion 5)
Input ligand: FMN 200 uM
  apparent KD of MS2 coat protein: 369 nM
Input ligand: none
  apparent KD of MS2 coat protein: 717 nM

## UGCAGACGAGGAUAUGAUAAAGAUCACAUGAGGAUCACCCAUGUAGCGUCGAUAGACGCAUCAGAAGGCGUCUGCA [E5/1-A2] (Eterna round: R97, puzzle: Exclusion 5)
Input ligand: FMN 200 uM
  apparent KD of MS2 coat protein: 16.3 nM
Input ligand: none
  apparent KD of MS2 coat protein: 16 nM

## UGCAUGUAAGGAUAUGCAACCUGCGCUCAUUAGCAGGUCAAGCAGAAGGUACAUGAGGAUCACCCAUGUGUCCG [Tebisoma] (Eterna round: R96, puzzle: Exclusion 4)
Input ligand: FMN 200 uM
  apparent KD of MS2 coat protein: 462 nM
[1]
  apparent KD of MS2 coat protein: 25.2 nM
Input ligand: none
  apparent KD of MS2 coat protein: 31.6 nM

## UGCAUGUAAGGAUAUGCAUCCGCCGACGUCCCGGCGGCACAGCAGAAGGUACAUGAGGAUCACCCAUGUGUCCC [Qusousar] (Eterna round: R96, puzzle: Exclusion 4)
Input ligand: FMN 200 uM
  apparent KD of MS2 coat protein: 449 nM
[1]
  apparent KD of MS2 coat protein: 24 nM
Input ligand: none
  apparent KD of MS2 coat protein: 31 nM

## UGCCAGAAAGGAUAUACAUGAGGAUCACCCAUGUAACCCUAUGUGAGAGUUCCCGUUUGUAGAAGGUUCUCGUA [EX3 C.22] (Eterna round: R97, puzzle: Exclusion 3)
Input ligand: FMN 200 uM
  apparent KD of MS2 coat protein: 21.3 nM
Input ligand: none
  apparent KD of MS2 coat protein: 18.2 nM

## UGCGGGCUUUUGAGACCUCACAUGAGGAUCACCCAUGUGCUUGUCUUGUGAGUGGGUAGGUCGUUGGCUGACUCACG [Sensor-V1 #99] (Eterna round: R97, puzzle: Sensor, turn-off variant 1)
Input ligand: FMN 200 uM
  apparent KD of MS2 coat protein: 23.4 nM
Input ligand: none
  apparent KD of MS2 coat protein: 23.1 nM

## UGCUACAUGAGGAUCACCCAUGUAAUGUGGGAUUCGUUAGGACAGGAUAUGAUUGUAUAGUUUUUUCAGAAGGGUCAUUACUUU [JR_ExcNG3_Sub010] (Eterna round: R96, puzzle: Exclusion NG 3)
[1]
  apparent KD of MS2 coat protein: 62.9 nM

## UGCUACGGAGGAUAUACAUGAGGAUCACCCAUGUGAUAGAUUAUCGCGAGAGCGUAAUGUAGAAGGCCGUAGCU [jl-ex3-4.12 jl mod] (Eterna round: R97, puzzle: Exclusion 3)
Input ligand: FMN 200 uM
  apparent KD of MS2 coat protein: 506 nM
Input ligand: none
  apparent KD of MS2 coat protein: 56 nM

## UGGGAACGAGGAUAUCGAUGGUGGAACAUGAGGAUCACCCAUGUAUGAGAUAGUGUAGUUCGAGAAGGCGUUAAGU [JR_E5_Sub053] (puzzle: Exclusion 5)
[2]
  apparent KD of MS2 coat protein: 54 nM

## UGUAACCUAGGAUAUACAUGAGGAUCACCCAUGUAAUGUAGUAUAGUGUGUGUAAGGUGUAGAAGGAGGGAUGU [LRO-Excl05-22-Smart Aleck] (Eterna round: R97, puzzle: Exclusion 3)
Input ligand: FMN 200 uM
  apparent KD of MS2 coat protein: 9.76 nM
Input ligand: none
  apparent KD of MS2 coat protein: 62.9 nM

## UGUAAGCUAGGAUAUGCUUUGGGAAAGCAUUCCUUCGAUAAACUUGAGGAUCACCCAAGUAGAAGGAGCUUACG [salish99_ex2_r4_007] (Eterna round: R97, puzzle: Exclusion 2)
Input ligand: FMN 200 uM
  apparent KD of MS2 coat protein: 14.1 nM
Input ligand: none
  apparent KD of MS2 coat protein: 12.8 nM

## UGUACCAUAGGAUAUACAUGAGGAUCACCCAUGUUAAUACGAUAUGUAAUGGUUACUUGUAGAAGGAUGAAAAG [Eternabot (L1) Solution 29] (Eterna round: R97, puzzle: Exclusion 3)
Input ligand: FMN 200 uM
  apparent KD of MS2 coat protein: 14.9 nM
Input ligand: none
  apparent KD of MS2 coat protein: 11 nM

## UGUACUAUGCGUGCUGACAUGCGUAGUGCAGCAGGUGUAACAUGAGGAUCACCCAUGUCCUCAUUUGCUCGUCUUAU [SL-sv3-2.06 JL mod] (puzzle: Sensor v3, turn-off variant 2)
[3]
  apparent KD of MS2 coat protein: 194 nM
[2]
  apparent KD of MS2 coat protein: 176 nM
[4]
  apparent KD of MS2 coat protein: 273 nM

## UGUCAGAUGGUAGGAUAUCUAUAUCGAGUGACCCUUUCAUAACAUGAGGAUCACCCAUGUCGGUGGGAGAAGGGCCGUAUGGUG [salish99_ExNG02_R04_029] (Eterna round: R96, puzzle: Exclusion NG 2)
Input ligand: FMN 200 uM
  apparent KD of MS2 coat protein: 28.6 nM
[1]
  apparent KD of MS2 coat protein: 23.2 nM
Input ligand: none
  apparent KD of MS2 coat protein: 28.5 nM

## UGUGAGCAUGUCAGGAUAUGCAUCACAGUUAGGAUGUAGAAGGGACAUGAGGAUCACCCAUGUAGCUUCAGGUA [BmEX4 A.20] (Eterna round: R97, puzzle: Brourd's mod of Exclusion 4)
Input ligand: FMN 200 uM
  apparent KD of MS2 coat protein: 17.7 nM
Input ligand: none
  apparent KD of MS2 coat protein: 14.5 nM

## UGUGCGUAUGUGAGGAUAUGCUGGUCCUUGGAUCAGCAGAAGGCACAUGAGGAUCACCCAUGUGGUGUCGUACA [salish99_Bmod_Ex4_007] (puzzle: Brourd's mod of Exclusion 4)
[3]
  apparent KD of MS2 coat protein: 29.2 nM
[2]
  apparent KD of MS2 coat protein: 158 nM
[4]
  apparent KD of MS2 coat protein: 307 nM

## UGUGCGUAUGUGAGGAUAUGCUGGUCCUUGGAUCGGCAGAAGGCACAUGAGGAUCACCCAUGUGGUGUCGUUCC [salish99_Bmod_ex4_095] (puzzle: Brourd's mod of Exclusion 4)
[2]
  apparent KD of MS2 coat protein: 102 nM

## UGUGCGUAUGUGAGGAUAUGCUGGUCCUUGGCUCGGCAGAAGGCACAUGAGGAUCACCCAUGUGGUGUCGUACC [salish99_Bmod_ex4_060] (puzzle: Brourd's mod of Exclusion 4)
[2]
  apparent KD of MS2 coat protein: 33.1 nM

## UGUGCGUCAGGAUAUUCUACUUAUUACAUGAGGAUCACCCAUGUGAAUGUACAAGGGUGUGAAGAAGGGACUUGUC [LRO-Excl5-05-mod A17d by Omei] (Eterna round: R97, puzzle: Exclusion 5)
Input ligand: FMN 200 uM
  apparent KD of MS2 coat protein: 194 nM
Input ligand: none
  apparent KD of MS2 coat protein: 798 nM

## UGUGCUCUAGGAUAUGCGUAAGCUGAUACGUCAGCAGGUCUACAUGAGGAUCACCCAUGUAGAAGGAGAGUACU [jl-ex2-4.00] (Eterna round: R97, puzzle: Exclusion 2)
Input ligand: FMN 200 uM
  apparent KD of MS2 coat protein: 18.6 nM
Input ligand: none
  apparent KD of MS2 coat protein: 20.8 nM

## UGUGUGAGACAGGAUAUGCCGGUUGUGUUGCUGGUAGAAGGGUCUACAUGAGGAUCACCCAUGUGGCCGGUUGG [Ex6 #80] (Eterna round: R97, puzzle: Exclusion 6)
Input ligand: FMN 200 uM
  apparent KD of MS2 coat protein: 19.1 nM
Input ligand: none
  apparent KD of MS2 coat protein: 17.3 nM

## UGUUCGUCAGGAUAUUCUACUUAUUACAUGAGGAUCACCCAUGUGUAUGUACAAGGGUGUGAAGAAGGGACUUGUC [LRO-Excl5-07-mod A17d by Omei] (Eterna round: R97, puzzle: Exclusion 5)
Input ligand: FMN 200 uM
  apparent KD of MS2 coat protein: 331 nM
Input ligand: none
  apparent KD of MS2 coat protein: 1240 nM

## UGUUGUCGCGCAGGAUAUGAGGAUCACCCAUAUACAGGAUAUGAAAAGAAGGGUCUGAGGAUCACCCAGAAGGGCGGGACAACU [pwkr exNG2 2xF5 2xFMN.27] (Eterna round: R96, puzzle: Exclusion NG 2)
Input ligand: FMN 200 uM
  apparent KD of MS2 coat protein: 1340 nM
[1]
  apparent KD of MS2 coat protein: 99.9 nM
Input ligand: none
  apparent KD of MS2 coat protein: 135 nM

## UUAAAAUAUGUAGGAUAUGCGUGGCGAAGCUAUGCAGAAGGACAUGAGGAUCACCCAUGUUCCUGCGUCCGCGUACGGAUGCAA [JL Eng1 1.21 mod 3] (Eterna round: R96, puzzle: Exclusion NG 1)
Input ligand: FMN 200 uM
  apparent KD of MS2 coat protein: 14.8 nM
[1]
  apparent KD of MS2 coat protein: 9.15 nM
Input ligand: none
  apparent KD of MS2 coat protein: 12.4 nM

## UUAAAUCAUGUAGGAUAUGCGUGGCGAAGCUAUGCAGAAGGACAUGAGGAUCACCCAUGUGCUGCGGUCUGCGUACAGAUCGCA [JL ENG1 1.06] (Eterna round: R96, puzzle: Exclusion NG 1)
Input ligand: FMN 200 uM
  apparent KD of MS2 coat protein: 87.6 nM
[1]
  apparent KD of MS2 coat protein: 259 nM
Input ligand: none
  apparent KD of MS2 coat protein: 307 nM

## UUAAAUCAUGUAGGAUAUGCGUGGCGAAGCUAUGCAGAAGGACAUGAGGAUCACCCAUGUUCUGCGGUCUGCGUACAGAUCGCA [JL ENG1 1.05] (Eterna round: R96, puzzle: Exclusion NG 1)
Input ligand: FMN 200 uM
  apparent KD of MS2 coat protein: 502 nM
[1]
  apparent KD of MS2 coat protein: 29.1 nM
Input ligand: none
  apparent KD of MS2 coat protein: 42.7 nM
